Laboratory results taken from patent US20230265212A1 (OVERA, published 2023).
Read-outs that look alike come from different tables or passages of the source. Each block holds one binder with its values, some of them ahead of it.

How the values were obtained:
[1] = target: peptide-BSA conjugate (respective antigens of the antibodies); test: biolayer interferometry (Octet), peptide-BSA conjugate
[2] = target: T1, BSA conjugated to SAS1B peptide A (CGGLEETPESSFLIEGDIIRPSPFRL) (conjugated to BSA); test: BLI (Octet)
T1 peptide: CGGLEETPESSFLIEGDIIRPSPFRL

[3] = target: T1, BSA conjugated to SAS1B peptide A …; test: BLI (Octet)
[4] = target: T2, BSA conjugated to SAS1B peptide A (CGGLEETPESSFLIEGDIIRPSPFRL) (human, conjugated to BSA); test: biolayer interferometry (Octet), peptide-BSA conjugate
T2 construct: also called peptide-BSA conjugate
T2 peptide: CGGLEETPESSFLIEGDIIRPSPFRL
Method: Protein A-Purified antibodies were subjected to binding kinetic analysis via biolayer interferometry (Fortebio's Octet instrument) and the parameters of binding to peptide-BSA conjugate were determined (FIGS. 8 and 9). […] The dissociation constants (Kdis) from these three clones were too slow to be accurately fit (<1×10⁻⁶ sec⁻¹). With the caveat that Kdis were inaccurate due to these long residency times, KDs were calculated (FIGS. 8 and 9).

[5] = target: T2, BSA conjugated to SAS1B peptide A …; test: colorimetric ELISA, BSA-peptide A coated, anti-mouse IgG-HRP
Text: Colorimetric ELISA data comparing binding of naked OV119 to OV119 conjugated using stochastic chemistry (OV119-WT-OM) and AJICAP site-specific conjugation (OV119-CAP-DM1). The solid phase was coated with BSA conjugated to SAS1B peptide A ([…]). Normalized concentrations of the three antibody moieties were titrated by serial 5-fold dilution. A secondary antibody specific for mouse IgG and conjugated to horse radish peroxidase was then applied. After development using TMB substrate and reaction stopping with H₂SO₄, absorbance of light at 450 nm was measured and plotted against antibody concentration (FIG. 14).

koff [1]: < 1e-06 s⁻¹
Kd [2]: 0.284 nM
B1: monoclonal antibody OV123 (antibody, V domains shown)
VH: EVQLQESGPGLVKPSQSLSLTCTVTGYSITSDNAWNWIRQFPGNKLEWMGYISYSGRTSYNPSLKSRISVTRDTSKNRFFLQLNSVTTEDTATYYCARIGSYFTMDYWGQGTSVTVSS
VL: DVVMTQTPLSLSVGLGDQASISCRSSQSLVHINGSTYLHWYLQKPGQSPKLLIYKIANRFSGVPDRFSGSGSGTDFTLKISRVEAEDLGAYFCSQSTHVPLTFGAGTKLEIK

Kd [3]: 0.532 nM
B2: monoclonal antibody OV121 (antibody, V domains shown)
VH: EVQLQESGPGLVKPSQSLSLTCTVTGYSVTSDSAWNWIRQFPGNKLEWMGYISYSGSTTYNPSLKSRISITRDTSENQFFLQLRSVTTEDTATYYCARLGNLFTMDYWGQGTSVTVSA
VL: EILLTQSPVILAASPGEKVTITCSASSSLNYMNWYQQRPGSSPKIWIYGISNLASGVPARFSGSGSGTSFSFTINSMEAEDVATYYCQQRSSFPFTFGSGTKLEIK

Kd [3]: < 0.001 nM
B3: monoclonal antibody OV115 (antibody, V domains shown)
VH: DVQLQESGPGLVKPSQSLSLTCTVTGYSLTSDYAWNWIRQFPGKKVEWMGYLSYSGRTSYNPSLKSRISITRDTSRNQFFLQLNSVTTEDTATYYCARMGGNFGFDYWGQGTTLTVST
VL: GIVMTQAPLSLPVSLGDQASISCRSSQSLVHINGSTYLHWYLQKPGQSPNLLIYKVSYRFSGVPDRFSGSGSGTDFTLKITRVEAEDLGVYFCSQSTHVPLTFGSGTKLEIK

koff [4]: < 1e-06 s⁻¹
Kd [2]: 0.0343 nM
B4: monoclonal antibody OV119 (antibody, V domains shown)
VH: EVQLQESGPELVKPGASVKISCKTSGYTFTEYPMHWVKQSHGKSLEWIGGINPNNGDTTYNQRFKGKATLTVDKSSGTAYMELRSLTSEDSAVYYCVPNFDWFAYWGQGTLVTVSP
VL: DVLMTQSPLSLPVSLGDQASISCRSSQSIVHSYGNTYLEWYLQKPGQSPKLLIYKVSNRFSGVPDRFSGSGSGTDFTLRISRVEAEDLGIYYCFQGSHLPFTFGGGTKLEIK
notes: Mouse hybridoma monoclonal IgG; also called naked OV119 (unconjugated)

binding result [5]: binds
B5: OV119 conjugated using stochastic chemistry (OV119-WT-OM) (antibody, V domains shown)
VH: B4 VH
VL: B4 VL
modifications: drug conjugated by stochastic chemistry; sites and drug load not stated
notes: Stochastic conjugate of OV119

binding result [5]: binds
B6: OV119 conjugated to DM1 using AJICAP site-specific conjugation (antibody, V domains shown)
VH: B4 VH
VL: B4 VL
modifications: DM1 on the heavy chain by AJICAP site-specific conjugation via azide intermediates, 1 or 2 DM1 molecules per heavy chain (DAR 2, 3 and 4); residue not stated
notes: Antibody-drug conjugate of mouse IgG OV119; also called OV119-DM1; OV119-CAP-DM1

koff [1]: < 1e-06 s⁻¹
Kd [2]: 0.115 nM
B7: monoclonal antibody OV124 (antibody, V domains shown)
VH: EVQLQESGAELMKPGASVKLSCKATGSIFNKYWIDWVRQRPGHGLEWIGEILPGSGSTIYSEKFKGKATITADTSSNTAYMQLSSLTSEDSAVYYCASRALDYWGQGTTLTVSS
VL: DVVMTQTPLSLPVSLGDQASISCRSSQSLIHSNGNTYLHWYLQKPGQSPKLLIYQVSNRFSGVPDRFSGSGSGTDFTLKISRVEAEDLGVYFCSQSTHVPYTFGGGTKLEIK
